Test results: article PMC2814945 (Peptides, 2009)
Positions count from the first letter of the chain named.

T1: HA-tagged human Neuropeptide S receptor, I107 variant (human, UniProt Q6W5P4 1-371, N107I)
T1 sequence (looked up): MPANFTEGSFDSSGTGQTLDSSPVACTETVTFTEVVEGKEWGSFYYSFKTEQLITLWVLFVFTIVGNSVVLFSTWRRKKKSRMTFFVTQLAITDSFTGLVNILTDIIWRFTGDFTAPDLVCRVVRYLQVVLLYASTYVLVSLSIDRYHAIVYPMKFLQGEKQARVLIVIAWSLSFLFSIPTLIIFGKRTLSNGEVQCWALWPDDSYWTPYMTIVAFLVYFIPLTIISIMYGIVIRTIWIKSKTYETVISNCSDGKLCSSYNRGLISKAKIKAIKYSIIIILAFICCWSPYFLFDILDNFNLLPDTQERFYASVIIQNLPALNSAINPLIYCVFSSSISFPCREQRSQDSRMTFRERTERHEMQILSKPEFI

T2: HA-tagged human Neuropeptide S receptor, D105A mutant in the N107 background (human, UniProt Q6W5P4 1-371, D105A)
T2 sequence (looked up): T1 sequence (looked up) with D105A, I107N

T3: HA-tagged human Neuropeptide S receptor, N107 variant (human, UniProt Q6W5P4 1-371)
T3 sequence (looked up): T1 sequence (looked up) with I107N

T4: HA-tagged human Neuropeptide S receptor, N101A mutant in the N107 background (human, UniProt Q6W5P4 1-371, N101A)
T4 sequence (looked up): T1 sequence (looked up) with N101A, I107N


What was measured:
[1] = biological target: HA-tagged human Neuropeptide S receptor, D105A mutant in the N107 background (human) (UniProt Q6W5P4)
[2] = biological target: T1, HA-tagged human Neuropeptide S …; experiment: cell-based or functional assay
[3] = biological target: T2, HA-tagged human Neuropeptide S …; experiment: cell-based or functional assay
[4] = biological target: T3, HA-tagged human Neuropeptide S …; experiment: cell-based or functional assay
[5] = biological target: T4, HA-tagged human Neuropeptide S …; experiment: cell-based or functional assay
[6] = biological target: T2, HA-tagged human Neuropeptide S …; experiment: radioligand binding
[7] = biological target: T3, HA-tagged human Neuropeptide S …; experiment: radioligand binding

Row | Molecule | EC50 of receptor activation by human NPS 1-18 (unpublished data) [1] | EC50 of NPS-mediated mobilisation of intracellular Ca2+ (FLIPR), stable clone #4 [2] | EC50 of NPS-mediated mobilisation of intracellular Ca2+ (FLIPR), stable clone #5 [2] | EC50 of receptor activation by human NPS 1-20 (unpublished data) [3] | EC50 of NPS-mediated mobilisation of intracellular Ca2+ (FLIPR), stable clone #2 [4] | EC50 of NPS-mediated mobilisation of intracellular Ca2+ (FLIPR), stable clone #4 [4] | EC50 of NPS-mediated mobilisation of intracellular Ca2+ (FLIPR), stable clone #2 [5] | EC50 of NPS-mediated mobilisation of intracellular Ca2+ (FLIPR), stable clone #6 [5] | IC50 [6] | IC50 [7]
1 | human NPS 1-18 (peptide) | 1000 nM |  |  |  |  |  |  |  |  | 
2 | SFRNGVGTGMKKTSFQRAKS (peptide, UniProt P0C0P6 70-89, looked up) [Neuropeptide S (human)] |  | 1.6 nM | 1.7 nM | ~1000 nM | 25 nM | 4.9 nM | 12 nM | 42 nM | > 200 nM | 8.7 ± 1.9 nM
